Source: US20210395374A1

Key:
Human CD3ε/δ (human) = Human CD3ε/δ (human) (UniProt P07766); assay: kinetic binding analysis (ka/kd); method not stated
[1] = biological target: Cynomolgus CD3ε/δ (cynomolgus monkey) (UniProt Q95LI5); assay: as above
Sequence of UniProt Q95LI5 (Q95LI5 22-117, stated change not applied, chain 1 of 2): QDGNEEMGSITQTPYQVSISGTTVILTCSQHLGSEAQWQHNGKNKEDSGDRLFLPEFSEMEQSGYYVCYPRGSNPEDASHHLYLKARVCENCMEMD
Sequence of UniProt Q95LI5 (Q95LI8 22-105, stated change not applied, chain 2 of 2, further chain): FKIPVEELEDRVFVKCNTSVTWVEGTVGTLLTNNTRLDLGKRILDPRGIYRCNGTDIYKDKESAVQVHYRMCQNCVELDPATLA

Sequence of UniProt P07766 (P07766 23-126, stated change not applied, chain 1 of 2): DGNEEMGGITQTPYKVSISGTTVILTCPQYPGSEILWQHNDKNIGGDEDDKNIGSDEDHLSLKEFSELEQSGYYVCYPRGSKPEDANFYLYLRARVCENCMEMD
Sequence of UniProt P07766 (P04234 22-105, stated change not applied, chain 2 of 2, further chain): as the sequence (Q95LI8 22-105, stated change not applied, chain 2 of 2, further chain) above, with V5I, K15N, V20I, T32S, N33D, N34I, A64T, N74S, L83V counted along it

- Kd (Human CD3ε/δ (human)): 9 nM
- koff (Human CD3ε/δ (human)): 0.005 s⁻¹
- kon (Human CD3ε/δ (human)): 570000 M⁻¹ s⁻¹
- Kd [1]: 9.2 nM
- koff [1]: 0.005 s⁻¹
- kon [1]: 550000 M⁻¹ s⁻¹
B1: DART-A (sequence-optimized CD123×CD3 bispecific diabody) (bispecific antibody)
chain 1: QAVVTQEPSLTVSPGGTVTLTCRSSTGAVTTSNYANWVQQKPGQAPRGLIGGTNKRAPWTPARFSGSLLGGKAALTITGAQAEDEADYYCALWYSNLWVFGGGTKLTVLGGGGSGGGGEVQLVQSGAELKKPGASVKVSCKASGYTFTDYYMKWVRQAPGQGLEWIGDIIPSNGATFYNQKFKGRVTITVDKSTSTAYMELSSLRSEDTAVYYCARSHLLRASWFAYWGQGTLVTVSSGGCGGGEVAALEKEVAALEKEVAALEKEVAALEK
chain 2: DFVMTQSPDSLAVSLGERVTMSCKSSQSLLNSGNQKNYLTWYQQKPGQPPKLLIYWASTRESGVPDRFSGSGSGTDFTLTISSLQAEDVAVYYCQNDYSYPYTFGQGTKLEIKGGGSGGGGEVQLVESGGGLVQPGGSLRLSCAASGFTFSTYAMNWVRQAPGKGLEWVGRIRSKYNNYATYYADSVKDRFTISRDDSKNSLYLQMNSLKTEDTAVYYCVRHGNFGNSYVSWFAYWGQGTLVTVSSGGCGGGKVAALKEKVAALKEKVAALKEKVAALKE
